Results as given in patent US8658372.

Target: T1, botulinum toxoid B, P10844
T1 chain: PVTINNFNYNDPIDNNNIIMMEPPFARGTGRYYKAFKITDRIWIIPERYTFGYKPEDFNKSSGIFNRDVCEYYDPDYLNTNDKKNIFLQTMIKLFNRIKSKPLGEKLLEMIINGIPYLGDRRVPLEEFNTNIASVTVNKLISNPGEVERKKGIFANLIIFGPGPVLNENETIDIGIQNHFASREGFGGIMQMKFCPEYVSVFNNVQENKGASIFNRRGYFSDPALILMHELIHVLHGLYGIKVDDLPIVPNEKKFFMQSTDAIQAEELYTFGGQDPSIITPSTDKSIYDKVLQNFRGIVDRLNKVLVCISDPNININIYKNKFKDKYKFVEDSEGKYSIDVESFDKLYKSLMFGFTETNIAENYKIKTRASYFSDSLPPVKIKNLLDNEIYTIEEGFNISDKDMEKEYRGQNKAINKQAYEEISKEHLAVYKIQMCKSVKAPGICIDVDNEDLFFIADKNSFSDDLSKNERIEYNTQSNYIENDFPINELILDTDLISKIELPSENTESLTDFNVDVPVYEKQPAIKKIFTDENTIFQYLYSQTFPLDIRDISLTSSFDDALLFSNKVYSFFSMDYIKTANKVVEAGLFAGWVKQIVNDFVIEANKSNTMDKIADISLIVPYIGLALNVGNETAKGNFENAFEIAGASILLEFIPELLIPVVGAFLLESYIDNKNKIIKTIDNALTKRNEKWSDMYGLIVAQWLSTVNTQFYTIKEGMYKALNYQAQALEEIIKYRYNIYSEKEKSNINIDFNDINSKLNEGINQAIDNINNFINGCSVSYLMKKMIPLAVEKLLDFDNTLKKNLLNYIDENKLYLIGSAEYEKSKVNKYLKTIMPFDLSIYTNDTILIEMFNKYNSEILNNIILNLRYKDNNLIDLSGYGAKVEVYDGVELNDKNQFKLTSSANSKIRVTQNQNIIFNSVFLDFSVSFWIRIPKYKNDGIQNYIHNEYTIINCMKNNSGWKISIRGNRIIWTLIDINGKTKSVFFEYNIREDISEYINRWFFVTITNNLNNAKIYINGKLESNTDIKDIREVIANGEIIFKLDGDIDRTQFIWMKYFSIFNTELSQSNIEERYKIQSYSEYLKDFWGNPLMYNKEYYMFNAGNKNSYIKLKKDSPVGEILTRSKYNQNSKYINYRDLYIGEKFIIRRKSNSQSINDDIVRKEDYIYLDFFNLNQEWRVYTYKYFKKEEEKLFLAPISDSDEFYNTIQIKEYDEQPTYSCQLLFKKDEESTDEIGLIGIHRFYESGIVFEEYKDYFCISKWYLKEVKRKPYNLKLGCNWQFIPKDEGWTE

GIGAVLKVLTTGLPALISWIKRKRQQ (modifications not checked) [Melittin] showed a limit of detection of less than 5 ng/mL.
